Source: patent publication US7192735B2, “Phosphopantetheinyl transferases and uses thereof” (President & Fellows of Harvard College, priority 1995, dated 2007)
Values joined by “and” are separate entries in the source; they are usually repeats but may differ in a detail not shown here. Identical values can stand only once. “Also recorded” adds a separate entry of the source. Like-named read-outs stand apart in the source and are kept apart here.

Key:
E. coli FAS apo-ACP = E. coli FAS apo-ACP (Escherichia coli, UniProt P0A6A8); conditions: for phosphopantetheinylation of ACP: 25 μM ACP, 60 min at 37° C., FIG. 11
Sequence of E. coli FAS apo-ACP (P0A6A8 2-78): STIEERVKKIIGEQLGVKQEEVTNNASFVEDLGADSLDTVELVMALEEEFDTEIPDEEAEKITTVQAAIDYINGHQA

EntF = molecular target: T1, EntF (Escherichia coli, UniProt P11454); assay: [3H]-4'-phosphopantetheine incorporation into EntF; type: biochemical, E. coli; conditions: for time course of modification of EntF: EntD 100 nM, ACPS and o195 at 15-fold higher concentrations, FIG. 14A; for phosphopantetheinylation of EntF: FIG. 12
T1 construct: made in house
T1 sequence (P11454 whole entry): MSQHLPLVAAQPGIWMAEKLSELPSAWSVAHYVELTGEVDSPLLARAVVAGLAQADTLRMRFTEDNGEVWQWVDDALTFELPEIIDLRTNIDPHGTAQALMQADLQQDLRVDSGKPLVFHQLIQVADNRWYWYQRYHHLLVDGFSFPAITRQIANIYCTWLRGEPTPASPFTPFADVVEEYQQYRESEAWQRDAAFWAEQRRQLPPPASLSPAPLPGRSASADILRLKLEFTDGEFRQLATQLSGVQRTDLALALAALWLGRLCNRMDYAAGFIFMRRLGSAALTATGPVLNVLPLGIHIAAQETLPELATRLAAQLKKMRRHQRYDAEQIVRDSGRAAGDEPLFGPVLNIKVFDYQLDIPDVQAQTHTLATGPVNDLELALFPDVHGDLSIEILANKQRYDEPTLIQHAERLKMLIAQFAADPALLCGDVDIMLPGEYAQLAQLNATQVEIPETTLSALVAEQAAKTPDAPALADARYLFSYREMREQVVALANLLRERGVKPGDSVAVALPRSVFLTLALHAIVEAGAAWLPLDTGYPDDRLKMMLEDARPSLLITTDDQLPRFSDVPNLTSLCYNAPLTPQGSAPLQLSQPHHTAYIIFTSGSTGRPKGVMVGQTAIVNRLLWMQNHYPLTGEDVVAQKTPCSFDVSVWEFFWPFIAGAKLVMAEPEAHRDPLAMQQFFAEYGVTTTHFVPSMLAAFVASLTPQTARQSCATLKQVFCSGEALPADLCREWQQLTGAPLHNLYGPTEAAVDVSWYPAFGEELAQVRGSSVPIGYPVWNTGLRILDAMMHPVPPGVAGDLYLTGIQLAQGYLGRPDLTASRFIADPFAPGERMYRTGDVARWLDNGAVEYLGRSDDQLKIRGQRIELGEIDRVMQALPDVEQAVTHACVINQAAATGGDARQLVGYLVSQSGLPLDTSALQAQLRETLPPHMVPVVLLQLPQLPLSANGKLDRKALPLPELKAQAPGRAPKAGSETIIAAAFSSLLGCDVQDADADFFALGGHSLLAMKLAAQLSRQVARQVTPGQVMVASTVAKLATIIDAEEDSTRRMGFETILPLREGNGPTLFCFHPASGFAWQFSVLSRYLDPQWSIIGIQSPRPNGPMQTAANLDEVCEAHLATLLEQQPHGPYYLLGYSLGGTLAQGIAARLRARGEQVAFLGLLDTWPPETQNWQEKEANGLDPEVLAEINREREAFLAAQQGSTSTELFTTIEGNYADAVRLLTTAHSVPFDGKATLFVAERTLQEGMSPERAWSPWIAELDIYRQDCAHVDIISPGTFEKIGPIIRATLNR
Experimental: A time course of EntD-catalyzed incorporation of radiolabel into EntF was performed.

[1] = test system: His6-PCP (peptidyl carrier protein domain of TycA); assay: [3H]-4'-phosphopantetheine transfer radioassay, His6-PCP substrate; conditions: for phosphopantetheinylation of His6-PCP: 25 μM His6-PCP, 60 min at 37° C., FIG. 11
Sequence of His6-PCP (peptidyl carrier protein domain of TycA) (P09095 528-602): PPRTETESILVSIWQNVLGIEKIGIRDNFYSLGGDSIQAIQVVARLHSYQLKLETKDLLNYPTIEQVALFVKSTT

apo-Dcp = assay: in vitro phosphopantetheinylation of D-Alanyl carrier protein; type: biochemical, Lactobacillus casei
Experimental: In another example, varying concentrations of apo-Dcp were incubated with ACPS at 37° C. to determine extent of phosphopantetheinylation.
The assays were incubated overnight at 37° C.
The [^3H] holo-Dcp formed was quantitated by dividing dpm by specific activity of pantetheinyl moiety of CoA which is equal to 4.83×10^14 dmp/mol.

Streptomycete ACPs = assay: modification of apo-form of Streptomycete ACPs; type: biochemical
apo-ACP [2] = molecular target: T2, apo-ACP (Escherichia coli, UniProt P0A6A8+P24224); conditions: for Km: steady-state kinetics, [3H]CoA radioassay
T2 sequence (P0A6A8 2-78, one chain of several): as the sequence (P0A6A8 2-78) above

apo-ACP [3] = molecular target: T2, apo-ACP; conditions: 50 μM apo-ACP, 1.8 μM ACPS, 210 μM [3H]CoA, 36 hour, 37° C., replicates
SrfB1 [4] = molecular target: T3, SrfB1 (Bacillus subtilis, UniProt Q04747); assay: [3H]-4'-phosphopantetheine incorporation into SrfB1; type: biochemical; conditions: FIG. 12
T3 construct: hexa-histidine (His6, from pPROEX-1) (N); made in house; host or cells: E. coli AG1574 (plasmid pML 118)
Target sequence in this assay (P39135 whole entry): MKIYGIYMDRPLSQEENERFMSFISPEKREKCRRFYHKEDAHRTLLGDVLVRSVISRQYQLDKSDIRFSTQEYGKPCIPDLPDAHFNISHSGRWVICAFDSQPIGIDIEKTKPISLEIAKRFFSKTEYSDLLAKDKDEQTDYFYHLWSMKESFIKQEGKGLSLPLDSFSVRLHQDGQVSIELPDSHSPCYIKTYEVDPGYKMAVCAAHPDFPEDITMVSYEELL
Target sequence in this assay (Q04747 92-1307): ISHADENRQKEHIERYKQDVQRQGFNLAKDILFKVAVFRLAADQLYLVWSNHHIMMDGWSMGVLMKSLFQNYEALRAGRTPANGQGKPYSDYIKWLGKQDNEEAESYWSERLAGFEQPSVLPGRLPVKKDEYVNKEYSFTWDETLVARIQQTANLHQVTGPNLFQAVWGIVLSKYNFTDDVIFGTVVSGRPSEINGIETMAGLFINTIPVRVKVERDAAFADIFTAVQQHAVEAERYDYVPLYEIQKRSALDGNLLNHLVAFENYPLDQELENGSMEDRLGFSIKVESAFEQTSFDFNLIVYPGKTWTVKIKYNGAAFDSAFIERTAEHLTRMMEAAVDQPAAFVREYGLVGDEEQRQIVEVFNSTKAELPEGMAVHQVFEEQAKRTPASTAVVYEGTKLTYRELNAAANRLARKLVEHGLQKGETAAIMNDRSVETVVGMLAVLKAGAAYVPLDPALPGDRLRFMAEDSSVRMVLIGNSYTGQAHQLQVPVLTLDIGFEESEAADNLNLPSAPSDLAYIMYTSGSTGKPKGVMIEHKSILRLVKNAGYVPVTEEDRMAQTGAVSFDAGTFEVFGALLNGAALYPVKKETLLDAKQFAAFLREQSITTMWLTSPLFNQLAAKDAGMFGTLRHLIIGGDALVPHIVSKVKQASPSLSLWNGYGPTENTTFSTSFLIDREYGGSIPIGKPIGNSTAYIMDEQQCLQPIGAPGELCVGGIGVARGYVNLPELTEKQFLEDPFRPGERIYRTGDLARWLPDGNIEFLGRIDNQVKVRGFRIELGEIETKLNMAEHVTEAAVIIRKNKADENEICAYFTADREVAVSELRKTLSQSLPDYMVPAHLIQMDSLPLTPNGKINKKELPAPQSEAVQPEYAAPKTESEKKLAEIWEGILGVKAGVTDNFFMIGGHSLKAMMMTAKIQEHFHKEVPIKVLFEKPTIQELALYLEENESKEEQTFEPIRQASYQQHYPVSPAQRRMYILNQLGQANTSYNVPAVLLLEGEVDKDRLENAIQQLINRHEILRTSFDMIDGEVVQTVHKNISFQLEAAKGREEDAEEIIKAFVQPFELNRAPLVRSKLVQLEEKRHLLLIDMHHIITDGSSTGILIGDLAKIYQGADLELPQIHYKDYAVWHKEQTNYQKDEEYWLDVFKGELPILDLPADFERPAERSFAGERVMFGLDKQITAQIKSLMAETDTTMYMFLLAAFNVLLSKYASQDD

SrfB1 [5] = molecular target: T3, SrfB1; assay: [14C] amino acid activation by holo-SrfB1 formed with Sfp; type: biochemical; conditions: 2 μM apo-SrfB1, 1.3 μM Sfp, 200 μM CoASH, FIG. 15
Experimental: The reaction was performed as follows. Apo-SrfB1 (2 μM) was incubated with 200 μM CoASH, 75 mM Tris.HCl pH 8.0, 10 mM MgCl2, 25 mM DTT and 1.3 μM Sfp for 15 min at 37° C. to generate holo-SrfB1. To the SrfB1-Sfp reaction mixture, unlabeled amino acid (valine or aspartic acid) was added to 90 μM final concentration. ATP was added to a final concentration of 2 mM, followed by 0.5 μCi [^14C]Val (281 Ci/mol) or [^14C]Asp (207 Ci/mol). The reaction (115 μL) was incubated for 15 min at 37° C., then stopped by the addition of 800 μL 10% TCA with 15 μL of a 25 mg/mL BSA solution as carrier. The precipitate was collected by centrifugation, washed with 10% TCA, dissolved in 150 μL Tris base, and then counted by liquid scintillation.
Target sequence in this assay (Q04747 92-1307): as above

B1: o195: E. coli ORF protein of unknown function, homologous to ACPS, shown to phosphopantetheinylate substrates (protein)
chain: MYRIVLGKVSTLSAAPLPPGLREQAPQGPRRERWLAGRALLSHTLSPLPEIIYGEQGKPAFAPEMPLWFNLSHSGDDIALLLSDEGEVGCDIEVIRPRANWRWLANAVFSLGEHAEMDAVHPDQQLEMFWRIWTRKEAIVKQRGGSAWQIVSVDSTYHSSLSVSHCQLENLSLAICTPTPFTLTADSVQWIDSVN
E. coli FAS apo-ACP
  phosphopantetheinylation of ACP: capable of transferring phosphopantetheine groups
EntF
  time course of modification of EntF: almost no modification
[1]
  phosphopantetheinylation of His6-PCP: capable of transferring phosphopantetheine groups

B2: ACPS: recombinant E. coli holo-acyl carrier protein synthase, 14 kDa dpj gene product overproduced in E. coli BL21(DE3)pDPJ (protein)
chain: MAILGLGTDIVEIARIEAVIARSGDRLARRVLSDNEWAIWKTHHQPVRFLAKRFAVKEAAAKAFGTGIRNGLAFNQFEVFNDELGKPRLRLWGEALKLAEKLGVANMHVTLADERHYACATVIIES
apo-Dcp
  phosphopantetheinylation of Dcp: capable of phosphopantetheinylating Dcp
apo-Dcp; 40 μM apo-Dcp, 1.8 μM ACPS, 210 μM [3H]CoA, 36 hour, 37° C., replicates
  radioactivity incorporated into the protein fraction, Dcp + ACPS: 1.04 × 10^6 (±0.93%) and 1.00 × 10^6 (±0.77%) and 0.98 × 10^6 (±0.95%)
apo-Dcp; varying apo-Dcp, 1.8 μM ACPS, overnight at 37° C., FIG. 4
  amount of holo-Dcp formed versus amount of apo-Dcp: increases linearly
Streptomycete ACPs
  modification of apo-form of Streptomycete ACPs (frenolicin, granaticin, oxytetracycline, tetracenomycin): modifies the apo-form
E. coli FAS apo-ACP; FIG. 14B
  time course of modification of apo-ACP: almost exclusive modification
EntF
  time course of modification of EntF: almost no modification
apo-ACP [2]
  substrate inhibition at apo-ACP concentrations: greater than 2 μM
apo-ACP [2]; purification from E. coli BL21(DE3)pDPJ, fraction Crude extract
  specific activity: 200 mU · mg^−1
apo-ACP [2]; purification from E. coli BL21(DE3)pDPJ, fraction DE-52
  specific activity: 250 mU · mg^−1
apo-ACP [2]; purification from E. coli BL21(DE3)pDPJ, fraction SP-Sepharose
  specific activity: 320 mU · mg^−1
apo-ACP [2]; purified protein, >95% purity
  specific activity: 320 mU/mg
apo-ACP [2]; read-out: Km value for CoA
  Km: 50 µM
apo-ACP [2]; read-out: Km value for apo-ACP (upper limit)
  Km: ≤ 1 µM
apo-ACP [2]; saturating CoA and 50 μM apo-ACP
  apparent kcat value: about 10 min^−1
apo-ACP [3]
  radioactivity incorporated into the protein fraction, ACP + ACPS: 2.21 × 10^6 (±.63%) and 2.13 × 10^6 (±.65%) and 2.20 × 10^6 (±.64%)

B3: Sfp: B. subtilis protein (26.1 kD) involved in surfactin biosynthesis, shown to be a phosphopantetheinyl transferase (protein)
chain: VIGAFDSQPIGIDIEKTKPISLEIAKRFFSKTEYSDLLAKDKDEQTDYFYHLWSMKESFIKQEGKGLSLPLDSFSVRLHQDGQVSIELPDSHSPCYIKTYEVDPGYKMAVCAAHPDFPEDITMVSYEELL
EntF
  phosphopantetheinylation of EntF: can catalyze modification
SrfB1 [4]
  phosphopantetheinylation of SrfB1: capable of phosphopantetheinylating; also recorded: efficiently catalyzes modification
SrfB1 [5]
  increase of [14C]-L-valine-holo-SrfB1 covalent complex following incubation with Sfp: about 14 fold
[1]; 13 nM Sfp, 15 minute reaction, FIG. 13
  phosphopantetheinylation of PCP at different substrate concentrations: capable of phosphopantetheinylating a substrate, such as PCP, in a wide range of concentrations
[1]
  phosphopantetheinylation of His6-PCP: capable of transferring phosphopantetheine groups; also recorded: efficiently catalyzes modification

B4: EntD: E. coli protein (23.6 kD) involved in enterobactin biosynthesis, phosphopantetheinyl transferase (protein)
chain: SRQPIGIDIEEIFSVQTARELTDNIITPAEHERLADCGLAFSLALTLAFSAKESAFKASEIQTDAGFLDYQIISWNKQQVIIHRENEMFAVHWQIKEKIVITLCQHD
E. coli FAS apo-ACP
  phosphopantetheinylation of ACP: capable of transferring phosphopantetheine groups
EntF
  time course of modification of EntF: modified effectively
  phosphopantetheinylation of EntF: capable of phosphopantetheinylating
[1]
  phosphopantetheinylation of His6-PCP: capable of transferring phosphopantetheine groups
